Results: US20040082509A1 (XIGEN S A, published 2004)

Biological target: recombinant JNK1α1 (UniProt P45983-2 1-384)
Test: cell-based or functional assay

Chain of recombinant JNK1α1 (P45983 other isoform, or with tags, fused parts or gaps limits assumed): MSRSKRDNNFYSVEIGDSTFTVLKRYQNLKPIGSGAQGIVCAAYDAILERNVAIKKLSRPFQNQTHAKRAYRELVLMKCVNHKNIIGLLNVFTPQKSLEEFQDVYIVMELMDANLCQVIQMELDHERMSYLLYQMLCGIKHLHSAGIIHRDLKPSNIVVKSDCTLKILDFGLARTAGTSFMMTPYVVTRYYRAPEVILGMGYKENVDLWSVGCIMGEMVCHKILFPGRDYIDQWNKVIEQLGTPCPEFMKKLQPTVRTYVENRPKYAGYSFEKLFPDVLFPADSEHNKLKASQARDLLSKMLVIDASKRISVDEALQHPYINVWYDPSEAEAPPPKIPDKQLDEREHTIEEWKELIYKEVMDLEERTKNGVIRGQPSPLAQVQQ

RPKRPTTLNLFPQVPRSQDT [L-JBD20 peptide (20 amino acid minimal JNK-inhibitory sequence of JIP-IB1)]
~1000 nM: IC50, phosphorylation of the JNK target ATF2 | IC50, phosphorylation of the JNK target IRS-1 | IC50, phosphorylation of the JNK target MADD | IC50, phosphorylation of the JNK target bcl-xl
